In one assay the target is T1, Fractalkine (Homo sapiens, UniProt P78423).
T1 construct: purchased 300-31
T1 sequence (P78423 25-100 limits assumed): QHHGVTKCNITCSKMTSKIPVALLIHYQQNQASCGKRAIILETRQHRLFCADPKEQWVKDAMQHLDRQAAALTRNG
Nature of the assay: Micro-array analysis of chemokine binding peptides: Fractalkine. The essentials:
(§1)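 Phage-presented peptides (10^7 pfu/μl in wash buffer) were incubated 1 h at room temperature on blocked slides carrying chemokine spots at 25 or 50 μg/ml. After anti-M13 and Cy3-labelled secondary antibody staining, slides were laser-scanned and spot fluorescence quantified as relative binding.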

The next assay has as its system IL-8. Nature of the assay: Micro-array analysis of chemokine binding peptides: IL-8. To be noted: for binding to IL-8 with relatively high affinity (Relative Fluorescence Units): limit = start of the upper 75% of that peptide's response range. In outline: as §1
For the next assay, the target named is T2, Eotaxin 3 (Homo sapiens, UniProt Q9Y258).
T2 construct: purchased 300-48
T2 sequence (Q9Y258 24-94): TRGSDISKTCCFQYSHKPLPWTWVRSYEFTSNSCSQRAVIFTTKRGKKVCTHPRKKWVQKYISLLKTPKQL
Nature of the assay: Micro-array analysis of chemokine binding peptides: Eotaxin 3. Conditions: for binding to Eotaxin 3 with relatively high affinity (Relative Fluorescence Units): limit = start of the upper 75% of that peptide's response range. The essentials: as §1

The next assay concerns the target T3, MDC 69 (Homo sapiens, UniProt O00626).
T3 construct: MDC(69aa), (CCL22 cat.no.300-36A); purchased 300-36A
T3 sequence (O00626 25-93): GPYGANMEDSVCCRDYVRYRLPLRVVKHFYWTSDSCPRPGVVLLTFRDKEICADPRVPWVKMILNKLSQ
As to the kind of experiment: Micro-array analysis of chemokine binding peptides: MDC 69. Here is the method: (§2) (1) Printing: Chemokine (CK) solution (in water) was serially diluted with Print Reagent (GenTel BioSurfaces USA) to final concentrations of 50 μg and 25 μg/ml. BSA/BSA-Biotin control solutions (in water) were diluted with Print Reagent to 100 μg/ml. Amplified stock of M13 phage control (M13KEgIII Cloning Vector, New England Biolabs, Cat.No.E8101S) was stored in Tris Buffered Saline (TBS; pH7.5, 4° C.) and diluted with Print Reagent to the working titre (10^8 pfu/μl). An automated spotting robot (16 pin print tool, 0.4 mm head; BioRobotics, UK) was used to print the CK/BSA control/M13 control, 5 repeats per sample (CK 25 μg/ml and 50 μg/ml; BSA 100 μg/ml; M13 20 μl), on PATH Protein Microarray Slides (GenTel, Prod.No. 2-1005/-1025) at […], and 50-70% relative humidity. Printed micro-array slides were stored at Room Temperature (RT) or 4° C. for at least 24 h before use.
(§3) (2) Blocking: Block Buffer (500 μl/partition; PATHblock, GenTel, Prod.No. 2-1014) was applied to the slide for 1 hour at room temp (RT). After removal of Block Buffer, the slide was air dried for 25 minutes;
(§4) (3) Phage Presented Peptide Binding: Amplified recombinant phage stock was stored in TBS and diluted with Wash Buffer to working titer (10^7 pfu/μl). Recombinant phage suspension (300 μl) was applied per partition and incubated at RT for 1 hour with gentle agitation.
(§5) (4) First Washing: The slides were washed twice with Wash Buffer 300 μl/partition).
(§6) (5) Primary Antibody (Ab) Labeling: The slides were incubated with the Primary Ab (1 mg/ml diluted ×2500 (Wash Reagent), 300 μl; Mouse Anti-M13 monoclonal Ab; Amersham Biosciences, UK; Product Code 27-9420-01) for 45 minutes at RT. […]
(§7) (11) Analysis: Quantitative analysis of micro-array was performed by the SpotReader program of Niles Scientific (USA) and presented as Relative Fluorescence (RF) as a function of CK concentration. Micro-array readout (Cy3 fluorescence) was quantified to determine the relative binding affinities of a CBP for the CKs and by inference, the specificity of the CBP for binding to a CK.

In another assay the target is T4, MCP-2 (Homo sapiens, UniProt P80075).
T4 construct: purchased 300-15
T4 sequence (P80075 24-99): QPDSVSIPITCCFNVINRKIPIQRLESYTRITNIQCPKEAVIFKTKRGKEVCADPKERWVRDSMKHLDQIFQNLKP
As to the kind of experiment: Micro-array analysis of chemokine binding peptides: MCP-2. To be noted: limit = start of the upper 75% of that peptide's response range. In outline:
as §1

The next assay concerns the target T5, I-309 (Homo sapiens, UniProt P22362).
T5 construct: purchased 300-37
T5 sequence (P22362 24-96): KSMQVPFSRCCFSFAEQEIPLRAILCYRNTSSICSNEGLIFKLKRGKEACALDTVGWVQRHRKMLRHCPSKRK
Nature of the assay: Micro-array analysis of chemokine binding peptides: I-309. Conditions: for binding to I-309 with relatively high affinity (Relative Fluorescence Units): limit = start of the upper 75% of that peptide's response range. In outline:
as §1

The target in the next assay is T6, TECK (Homo sapiens, UniProt O15444).
T6 construct: purchased 300-45
T6 sequence (O15444 24-150): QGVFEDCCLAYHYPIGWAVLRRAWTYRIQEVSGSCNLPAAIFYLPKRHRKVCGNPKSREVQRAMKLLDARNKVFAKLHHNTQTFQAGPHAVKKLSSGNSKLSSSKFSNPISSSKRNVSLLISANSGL
Nature of the assay: Micro-array analysis of chemokine binding peptides: TECK. The essentials: as §1

Another assay deals with T7, I-TAC (Homo sapiens, UniProt O14625).
T7 construct: purchased 300-46
T7 sequence (O14625 22-94): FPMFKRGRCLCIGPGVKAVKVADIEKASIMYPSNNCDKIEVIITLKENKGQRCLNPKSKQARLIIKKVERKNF
As to the kind of experiment: Micro-array analysis of chemokine binding peptides: I-TAC. To be noted: for binding to I-TAC with relatively high affinity (Relative Fluorescence Units): limit = start of the upper 75% of that peptide's response range. The essentials: as §1

The target in a further assay is T8, MCP-4 (Homo sapiens, UniProt Q99616).
T8 construct: purchased 300-24
As to the kind of experiment: Micro-array analysis of chemokine binding peptides: MCP-4. To be noted: limit = start of the upper 75% of that peptide's response range. In outline: as §1

For a further assay, the target named is T9, Lymphotactin (Homo sapiens, UniProt P47992).
T9 construct: purchased 300-20
T9 sequence (P47992 22-114): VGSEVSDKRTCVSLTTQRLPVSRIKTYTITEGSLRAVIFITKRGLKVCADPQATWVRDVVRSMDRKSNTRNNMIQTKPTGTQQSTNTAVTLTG
As to the kind of experiment: Micro-array analysis of chemokine binding peptides: Lymphotactin. In outline: as §1

The next assay addresses T10, C-TAC (Homo sapiens, UniProt Q9Y4X3).
T10 construct: purchased 300-54
T10 sequence (Q9Y4X3 25-112): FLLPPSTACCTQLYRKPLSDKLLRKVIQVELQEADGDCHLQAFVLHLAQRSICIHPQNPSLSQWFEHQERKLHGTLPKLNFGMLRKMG
Nature of the assay: Micro-array analysis of chemokine binding peptides: C-TAC. Here is the method:
as §2, §3, §4, §5, §6, §7

A further assay addresses T11, BCA-1 (Homo sapiens, UniProt O43927).
T11 construct: purchased 300-47
T11 sequence (O43927 23-109): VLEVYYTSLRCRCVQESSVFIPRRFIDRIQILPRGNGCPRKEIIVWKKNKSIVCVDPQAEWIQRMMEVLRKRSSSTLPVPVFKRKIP
Nature of the assay: Micro-array analysis of chemokine binding peptides: BCA-1. In outline: as §1

A further assay deals with T12, SDF1-β (Homo sapiens, UniProt P48061).
T12 construct: purchased 300-28b
Nature of the assay: Micro-array analysis of chemokine binding peptides: SDF1-β. In outline: as §1

Where [1] appears, read: limit = start of the upper 75% of that peptide's response range.

The record followed here is patent publication US12072338B2, “Pharmaceutical peptides for the treatment of inflammatory diseases” (PROTAGONISTS LTD., priority 2007, dated 2024).

Read-outs that look alike come from different tables or passages of the source. Where only a bound is given, the exact number is not on record here.

IL-8, sequence (P10145 28-99 limits assumed): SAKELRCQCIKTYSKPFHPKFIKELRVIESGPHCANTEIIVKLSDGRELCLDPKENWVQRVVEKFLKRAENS
T8 sequence (Q99616 17-98): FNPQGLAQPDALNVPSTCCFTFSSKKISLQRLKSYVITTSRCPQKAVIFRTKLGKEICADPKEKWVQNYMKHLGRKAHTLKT
T12 sequence (P48061 22-93): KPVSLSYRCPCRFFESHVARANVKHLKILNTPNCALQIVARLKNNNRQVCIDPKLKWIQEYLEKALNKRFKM

Consider DYDYGAPC [Ph-p30], for which the “binding to Fractalkine, stated in words” value in the assay with Fractalkine is listed as “bound”. The “binding to IL-8 with relatively high affinity (Relative Fluorescence Units)” value with IL-8 is recorded as > 15,000 RFU. Besides, the “binding to Eotaxin 3 with relatively high affinity (Relative Fluorescence Units)” value with Eotaxin 3 is > 15,000 RFU. The “binding to MDC 69, stated in words” value with MDC 69 was “bound”. Also, the “binding to MCP-2 with relatively high affinity (Relative Fluorescence Units)” value in the assay with MCP-2 was > 15,000 RFU. The “binding to I-309 with relatively high affinity (Relative Fluorescence Units)” value in the assay with I-309 was > 15,000 RFU. Moreover, in the assay with TECK, the “binding to TECK, stated in words” value is given as “bound”. Moreover, the “binding to I-TAC with relatively high affinity (Relative Fluorescence Units)” value in the assay with I-TAC is given as > 15,000 RFU. Also, in the assay with MCP-4, the “binding to MCP-4 with relatively high affinity (Relative Fluorescence Units)” value was > 15,000 RFU. Further, the “binding to Lymphotactin, stated in words” value in the assay with Lymphotactin is listed as “bound”. In addition, the “binding to C-TAC, stated in words” value with C-TAC was “bound”. Also, the “binding to BCA-1, stated in words” value with BCA-1 was “bound”. For the same sequence, in the assay with SDF1-β, the “binding to SDF1-β, stated in words” value is on record as “bound”.
WVFGAAMCK [Ph-p8.8]: the “binding to Fractalkine, stated in words” value in the assay with Fractalkine is “bound”; with Fractalkine (listed as P8.8), “bound specifically and differentially”. For the same sequence, the “binding to IL-8, stated in words” value is “bound” in the assay with IL-8; “bound specifically and differentially” with IL-8 (listed as P8.8). Besides, the “binding to Eotaxin 3, stated in words” value with Eotaxin 3 is “bound”. In the assay with MDC 69, the “binding to MDC 69, stated in words” value is “bound”. Besides, in the assay with MCP-2, the “binding to MCP-2 with relatively high affinity (Relative Fluorescence Units)” value is > 15,000 RFU. The “binding to I-309, stated in words” value with I-309 is given as “bound”. Also, the “binding to TECK, stated in words” value in the assay with TECK is “bound”. Besides, in the assay with I-TAC, the “binding to I-TAC, stated in words” value is given as “bound”. The “binding to MCP-4 with relatively high affinity (Relative Fluorescence Units)” value with MCP-4 is reported as > 15,000 RFU. Besides, in the assay with Lymphotactin, the “binding to Lymphotactin, stated in words” value is “bound”. Besides, the “binding to C-TAC, stated in words” value with C-TAC is listed as “bound”. Moreover, the “binding to BCA-1, stated in words” value in the assay with BCA-1 was “bound”. For the same sequence, the “binding to SDF1-β, stated in words” value in the assay with SDF1-β is reported as “bound”.
With WVFGNAMCK [P8], in the assay with Fractalkine, the “binding to Fractalkine, stated in words” value was “bound specifically and differentially”. Also, the “binding to Fractalkine with relatively high affinity (Relative Fluorescence Units)” value with Fractalkine (setting [1]) is reported as > 25,000 RFU. In addition, in the assay on IL-8, the “binding to IL-8, stated in words” value was “bound specifically and differentially”; the “binding to IL-8 with relatively high affinity (Relative Fluorescence Units)” value is reported as > 25,000 RFU. Moreover, the “binding to Eotaxin 3 with relatively high affinity (Relative Fluorescence Units)” value with Eotaxin 3 is given as > 25,000 RFU. Further, in the assay with MCP-2, the “binding to MCP-2 with relatively high affinity (Relative Fluorescence Units)” value is given as > 25,000 RFU. Besides, the “binding to I-309 with relatively high affinity (Relative Fluorescence Units)” value with I-309 is on record as > 25,000 RFU. Further, the “binding to TECK with relatively high affinity (Relative Fluorescence Units)” value in the assay with TECK (setting [1]) is given as > 25,000 RFU. In the assay with I-TAC, the “binding to I-TAC with relatively high affinity (Relative Fluorescence Units)” value was > 25,000 RFU. Moreover, the “binding to MCP-4 with relatively high affinity (Relative Fluorescence Units)” value with MCP-4 is reported as > 25,000 RFU. In the assay with BCA-1 (setting [1]), the “binding to BCA-1 with relatively high affinity (Relative Fluorescence Units)” value is > 25,000 RFU. In addition, the “binding to SDF1-β with relatively high affinity (Relative Fluorescence Units)” value with SDF1-β (setting [1]) was > 25,000 RFU.
